According to patent publication US20140178854A1:

Columns and labels:
[1] = target: gp70 env protein of amphotropic MLV (4070A envelope), on purified viral particles (amphotropic murine leukemia virus (4070A envelope)); assay: ELISA on plate-bound MLV, dilution factor 50, Exp121-Ana Plate 2
[2] = target: gp70 env protein of amphotropic MLV (4070A envelope), on purified viral particles (amphotropic murine leukemia virus (4070A envelope)); assay: ELISA on plate-bound MLV, dilution factor 6250, Exp121-Ana Plate 1
[3] = target: gp70 env protein of amphotropic MLV (4070A envelope), on purified viral particles (amphotropic murine leukemia virus (4070A envelope)); assay: ELISA on plate-bound MLV, dilution factor 50, Exp074-DTV Plate 1
[4] = target: gp70 env protein of amphotropic MLV (4070A envelope), on purified viral particles (amphotropic murine leukemia virus (4070A envelope)); assay: ELISA on plate-bound MLV, dilution factor 156250, Exp073-DTV Plate 1
[5] = target: gp70 env protein of amphotropic MLV (4070A envelope), on purified viral particles (amphotropic murine leukemia virus (4070A envelope)); assay: ELISA on plate-bound MLV, dilution factor 156250, Exp072-DTV Plate 2
[6] = target: gp70 env protein of amphotropic MLV (4070A envelope), on purified viral particles (amphotropic murine leukemia virus (4070A envelope)); assay: ELISA on plate-bound MLV, dilution factor 156250, Exp072-DTV Plate 1
[7] = target: gp70 env protein of amphotropic MLV (4070A envelope), on purified viral particles (amphotropic murine leukemia virus (4070A envelope)); assay: ELISA on plate-bound MLV, dilution factor 250, Exp125-Ana Plate 2
[8] = target: gp70 env protein of amphotropic MLV (4070A envelope), on purified viral particles (amphotropic murine leukemia virus (4070A envelope)); assay: ELISA on plate-bound MLV, dilution factor 781250, Exp125-Ana Plate 1
[9] = target: gp70 env protein of amphotropic MLV (4070A envelope), on purified viral particles (amphotropic murine leukemia virus (4070A envelope)); assay: ELISA on plate-bound MLV, dilution factor 156250, Exp122-Ana Plate 2
[10] = target: gp70 env protein of amphotropic MLV (4070A envelope), on purified viral particles (amphotropic murine leukemia virus (4070A envelope)); assay: ELISA on plate-bound MLV, dilution factor 781250, Exp074-DTV Plate 2
[11] = target: gp70 env protein of amphotropic MLV (4070A envelope), on purified viral particles (amphotropic murine leukemia virus (4070A envelope)); assay: ELISA on plate-bound MLV, dilution factor 781250, Exp073-DTV Plate 1
[12] = target: gp70 env protein of amphotropic MLV (4070A envelope), on purified viral particles (amphotropic murine leukemia virus (4070A envelope)); assay: ELISA on plate-bound MLV, dilution factor 250, Exp073-DTV Plate 2
[13] = target: gp70 env protein of amphotropic MLV (4070A envelope), on purified viral particles (amphotropic murine leukemia virus (4070A envelope)); assay: ELISA on plate-bound MLV, dilution factor 10, inter-assay mean of six experiments
[14] = target: gp70 env protein of amphotropic MLV (4070A envelope), on purified viral particles (amphotropic murine leukemia virus (4070A envelope)); assay: ELISA on plate-bound MLV, dilution factor 31250, Exp072-DTV Plate 1
[15] = target: gp70 env protein of amphotropic MLV (4070A envelope), on purified viral particles (amphotropic murine leukemia virus (4070A envelope)); assay: ELISA on plate-bound MLV, dilution factor 6250, Exp122-Ana Plate 2
[16] = target: gp70 env protein of amphotropic MLV (4070A envelope), on purified viral particles (amphotropic murine leukemia virus (4070A envelope)); assay: ELISA on plate-bound MLV, dilution factor 31250, Exp125-Ana Plate 2
[17] = target: gp70 env protein of amphotropic MLV (4070A envelope), on purified viral particles (amphotropic murine leukemia virus (4070A envelope)); assay: ELISA on plate-bound MLV, dilution factor 31250, Exp122-Ana Plate 2
[18] = target: gp70 env protein of amphotropic MLV (4070A envelope), on purified viral particles (amphotropic murine leukemia virus (4070A envelope)); assay: ELISA on plate-bound MLV, dilution factor 10, Exp074-DTV Plate 2
[19] = target: gp70 env protein of amphotropic MLV (4070A envelope), on purified viral particles (amphotropic murine leukemia virus (4070A envelope)); assay: ELISA on plate-bound MLV, dilution factor 31250, Exp073-DTV Plate 2
[20] = target: gp70 env protein of amphotropic MLV (4070A envelope), on purified viral particles (amphotropic murine leukemia virus (4070A envelope)); assay: ELISA on plate-bound MLV, dilution factor 1250, inter-assay mean of six experiments
[21] = target: gp70 env protein of amphotropic MLV (4070A envelope), on purified viral particles (amphotropic murine leukemia virus (4070A envelope)); assay: ELISA on plate-bound MLV, dilution factor 6250, Exp072-DTV Plate 2
[22] = target: gp70 env protein of amphotropic MLV (4070A envelope), on purified viral particles (amphotropic murine leukemia virus (4070A envelope)); assay: ELISA on plate-bound MLV, dilution factor 10, Exp073-DTV Plate 1
[23] = target: gp70 env protein of amphotropic MLV (4070A envelope), on purified viral particles (amphotropic murine leukemia virus (4070A envelope)); assay: ELISA on plate-bound MLV, dilution factor 50, Exp074-DTV Plate 2
[24] = target: gp70 env protein of amphotropic MLV (4070A envelope), on purified viral particles (amphotropic murine leukemia virus (4070A envelope)); assay: ELISA on plate-bound MLV, dilution factor 31250, Exp121-Ana Plate 1
[25] = target: gp70 env protein of amphotropic MLV (4070A envelope), on purified viral particles (amphotropic murine leukemia virus (4070A envelope)); assay: ELISA on plate-bound MLV, dilution factor 1250, Exp073-DTV Plate 2
[26] = target: gp70 env protein of amphotropic MLV (4070A envelope), on purified viral particles (amphotropic murine leukemia virus (4070A envelope)); assay: ELISA on plate-bound MLV, dilution factor 1250, Exp121-Ana Plate 1

gp70 env protein of amphotropic MLV (4070A envelope), on purified viral particles (amphotropic murine leukemia virus (4070A envelope)), sequence (P21995 whole entry): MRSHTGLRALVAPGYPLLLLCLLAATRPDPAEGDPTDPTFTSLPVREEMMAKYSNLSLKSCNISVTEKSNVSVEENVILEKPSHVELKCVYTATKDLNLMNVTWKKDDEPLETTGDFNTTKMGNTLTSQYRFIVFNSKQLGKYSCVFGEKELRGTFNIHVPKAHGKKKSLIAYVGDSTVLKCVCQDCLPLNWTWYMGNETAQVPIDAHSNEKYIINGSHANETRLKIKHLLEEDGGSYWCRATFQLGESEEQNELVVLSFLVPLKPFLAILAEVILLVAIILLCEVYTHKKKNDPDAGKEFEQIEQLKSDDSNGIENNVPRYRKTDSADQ

Substance: 83A25 monoclonal antibody (rat IgG2a, anti-gp70)
- Mean OD [1]: 2.46 OD
- Mean OD [2]: 0.903 OD
- Mean OD [3]: 2.01 OD
- Mean OD [4]: 0.14 OD
- Mean OD [5]: 0.119 OD
- Mean OD [6]: 0.116 OD
- Mean OD [7]: 1.88 OD
- Mean OD [8]: 0.105 OD
- Mean OD [9]: 0.174 OD
- Mean OD [10]: 0.107 OD
- Mean OD [11]: 0.107 OD
- Mean OD [12]: 2.12 OD
- Mean OD (inter-assay mean) [13]: 2.3 OD
- Mean OD [14]: 0.202 OD
- Mean OD [15]: 0.643 OD
- Mean OD [16]: 0.239 OD
- Mean OD [17]: 0.271 OD
- Mean OD [18]: 2.31 OD
- Mean OD [19]: 0.276 OD
- Mean OD (inter-assay mean) [20]: 1.53 OD
- Mean OD [21]: 0.612 OD
- Mean OD [22]: 2.43 OD
- Mean OD [23]: 2.14 OD
- Mean OD [24]: 0.322 OD
- Mean OD [25]: 1.61 OD
- Mean OD [26]: 1.93 OD
